The data set has as its system K4 kissing-loop RNA reporter. Put plainly: apparent KD of K4 kissing-loop reporter; higher = weaker reporter binding. Particulars: Eterna round: R107. On the procedure: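 RNA-MaP round R107: designed RNA switches with theophylline, tryptophan, arginine or FMN aptamers are transcribed on-chip within common flanks. They are titrated with a labelled K4 kissing-loop RNA reporter in RNA-MaP buffer (100 mM Tris pH 7.5, 80 mM KCl, 4 mM MgCl2), without ligand or with the indicated ligand. Median apparent KD per design.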

Where [1] appears, read: input ligand: theophylline 20 uM.
[2] abbreviates: input ligand: tryptophan 2.4 mM.
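Also: bound reporter read as fluorescence of individual clusters on recovered sequencing chips by microscopy, with normalized cluster intensities fitted with a binding model.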

For “UGACAUUGCUCAGAUACCAGACCUGAGGAUCACCCUGGUGCCAAACGUACAAUAAUAAAUGUCCCUUGGCAGCUGAGCAAUGUCU [TheoBX 14]”, the “apparent KD of K4 kissing-loop reporter” value was determined as 77.8 nM (input ligand: FMN 200 uM); 27.6 nM (input ligand: arginine 13.2 mM); 44.9 nM (input ligand: none); 139 nM under setting [1]; 52.4 nM under setting [2].

As to “UCCCGAGUGAUGUUUGGCUGAUGGAGUGAUACCAGUCCCUAGACUGACCCUUGGCAGCACGACUUGUACCAGGCGGAUCACCCUG [theeternabot_exclusion_KL_Theo_A_5]”, the “apparent KD of K4 kissing-loop reporter” value is, setting by setting: (input ligand: FMN 200 uM) 479 nM; (input ligand: arginine 13.2 mM) 260 nM; (input ligand: none) 423 nM; under setting [1], 431 nM; under setting [2], 366 nM.

Consider “GACAUCUAUCGCCGAUAGUGUUUAUCUUGGGAGGAUAUGUCAGCGGACAGAAGGCCCAGUGAUGUUGGGUAGAUGACCGUUGCCU [Orerditi]”, for which the “apparent KD of K4 kissing-loop reporter” value was found to be 337 nM (input ligand: FMN 200 uM); 123 nM (input ligand: arginine 13.2 mM); 131 nM (input ligand: none); 131 nM under setting [1]; 128 nM under setting [2].

As for “AUAAAUUUGUAGUGAUGUUGCAAGUUAGUCAAGGAUAUCAGGAAACUGAGAAGGUGAUAUCUCCUUUACUUGCAACUAGGAGGAG [KL-SSFMN-A11]”, the “apparent KD of K4 kissing-loop reporter” value by setting is: (input ligand: FMN 200 uM) 88 nM; (input ligand: arginine 13.2 mM) 87.3 nM; (input ligand: none) 91 nM; under setting [1], 90.8 nM; under setting [2], 85.7 nM.

Turning to “AAAAUAAAUAGCAGUCACGGAGUGAUGUUCCGAGGACCGGUACGGCCGCCACUCGACCAUCAUAAGAUGGAAUGGCGAGACUGCA [#SwitchBubble 21 #K4Early]”, the “apparent KD of K4 kissing-loop reporter” value is, setting by setting: (input ligand: FMN 200 uM) 134 nM; (input ligand: arginine 13.2 mM) 135 nM; (input ligand: none) 137 nM; under setting [1], 138 nM; under setting [2], 354 nM.

“AACGCUCAAUAGAGAGUGAUGUUCUCUAUACGAGGACCGGUACGGCCGCCACUCGAAUGUAUAGCGAAACGCUAUACACAGUGGU [Tryp A SS t2]”: the “apparent KD of K4 kissing-loop reporter” value came to 155 nM (input ligand: FMN 200 uM); 147 nM (input ligand: arginine 13.2 mM); 152 nM (input ligand: none); 146 nM under setting [1]; 150 nM under setting [2].

For the sequence “GCUCGGGAGUGAUGUUCCAAGUGGUGUUAACGAGGACCGGUACGGCCGCCACUCGAUACGGCCGGACCGUAGGAUAAACUGGAGC [Same State - Tryptophan A (Freestyle 12)]”, the “apparent KD of K4 kissing-loop reporter” value came to 149 nM (input ligand: FMN 200 uM); 110 nM (input ligand: arginine 13.2 mM); 125 nM (input ligand: none); 185 nM under setting [1]; 144 nM under setting [2].

“AGUACAGACACGGCCGCCACUCAGAAGAAGAUAGUAGUGAUGUUACUGAUGAUGAGAAUAAUAAAGAGGACCGGGUGUUGUGCAA [#09 K4 Tryptophan B Same State]”: the “apparent KD of K4 kissing-loop reporter” value reads like this: (input ligand: FMN 200 uM) 107 nM; (input ligand: arginine 13.2 mM) 100 nM; (input ligand: none) 125 nM; under setting [1], 113 nM; under setting [2], 71.5 nM.

With “GCCUGUGCACGAAGGAGCGCCGUGACAGGUUACUGCCUUGGGCAGUGAUGUUGCUCAAUCUGGCAGGUAGGUCGCGUGCACAGGC”, the “apparent KD of K4 kissing-loop reporter” value came out at 132 nM (input ligand: FMN 200 uM); 145 nM (input ligand: arginine 13.2 mM); 166 nM (input ligand: none); 138 nM under setting [1]; 102 nM under setting [2].

Turning to “GCAGUGAUGUUGCACGAGUAGGCUGGAGUACGAGGACCGGUACGGCCGCCACUCGUACGAAAGUCGCUAAUUUAUGGAAUGGUGA [#07 K4 Tryptophan A Same State]”, the “apparent KD of K4 kissing-loop reporter” value is, setting by setting: (input ligand: FMN 200 uM) 650 nM; (input ligand: arginine 13.2 mM) 623 nM; (input ligand: none) 668 nM; under setting [1], 602 nM; under setting [2], 467 nM.

For “CCUAUCUCAUACGAUACCAGUCAAAAUAUAAUUAACCAGUGAUGUUGGAUUUACCAAGGAGACCCUUGGCAGCGUAUGGGAUAGG [Ex Theophylline B K4 18]”, the “apparent KD of K4 kissing-loop reporter” value was 387 nM (input ligand: FMN 200 uM); 412 nM (input ligand: arginine 13.2 mM); 410 nM (input ligand: none); 517 nM under setting [1]; 540 nM under setting [2].

“AGACCUCAGUGAUGUUGAGGUAACACUGAUACCAGCGACUUGAUUCGCCCUUGGCAGCAGUCCACCGAGGUAUCUGAUCAGGUCA [#25 K4 Theophylline A Exclusion]”: the “apparent KD of K4 kissing-loop reporter” value runs as follows: (input ligand: FMN 200 uM) 159 nM; (input ligand: arginine 13.2 mM) 158 nM; (input ligand: none) 137 nM; under setting [1], 168 nM; under setting [2], 140 nM.

In the case of “CAUACGCAUGGAGGAUAUGAGAUUUCUCAUAUUAUUUAAUAUUCUCAGUGAUGUUGAGAAAUAAACUCAGAAGGCCAUGUGUAUG [Ex FMN B 3]”, the “apparent KD of K4 kissing-loop reporter” value (input ligand: FMN 200 uM) was found to be 256 nM; the “apparent KD of K4 kissing-loop reporter” value (input ligand: arginine 13.2 mM) is 365 nM; the “apparent KD of K4 kissing-loop reporter” value (input ligand: none) stood at 313 nM; the “apparent KD of K4 kissing-loop reporter” value under setting [1] came out at 405 nM; the “apparent KD of K4 kissing-loop reporter” value under setting [2] was determined as 304 nM.

Consider “GAAAGAAAGAAUGAUACCAGACACCCGAGUGAUGUUCGGAGCAGAGUGAUGUUCUAAUAAGUCCCUUGGCAGCAUAAAAGAAAAG [Same State Theophylline B GF 1]”, for which the “apparent KD of K4 kissing-loop reporter” value (input ligand: FMN 200 uM) came to 240 nM; the “apparent KD of K4 kissing-loop reporter” value (input ligand: arginine 13.2 mM) is 256 nM; the “apparent KD of K4 kissing-loop reporter” value (input ligand: none) is 322 nM; the “apparent KD of K4 kissing-loop reporter” value under setting [1] was 331 nM; the “apparent KD of K4 kissing-loop reporter” value under setting [2] amounted to 246 nM.

On to “GAGCCAACCGUCGAUACCAGCCGCACGUCAUUCACUCAAUGCUGAGGAGCCAGUGAUGUUGGCCCUUGGCAGCGAAGCAACGAUC [theeternabot_exclusion_KL_Theo_B_43]”, for which the “apparent KD of K4 kissing-loop reporter” value (input ligand: FMN 200 uM) turned out to be 97.5 nM; the “apparent KD of K4 kissing-loop reporter” value (input ligand: arginine 13.2 mM) is 91.8 nM; the “apparent KD of K4 kissing-loop reporter” value (input ligand: none) was 93.5 nM; the “apparent KD of K4 kissing-loop reporter” value under setting [1] amounted to 93.5 nM; the “apparent KD of K4 kissing-loop reporter” value under setting [2] was found to be 93.2 nM.

Consider “UAAGAAUAACAUGCAGUGAUGUUGCAUGUACGAGGACCGGUACGGCCGCCACUCGAGUCCUCGAACAUGCACCGAGGAAUAACAA [(H,1)-(H,2)-(Trp1)-(Trp2)-(T)'-(H)'-(T)'']”, for which the “apparent KD of K4 kissing-loop reporter” value (input ligand: FMN 200 uM) was 201 nM; the “apparent KD of K4 kissing-loop reporter” value (input ligand: arginine 13.2 mM) came out at 118 nM; the “apparent KD of K4 kissing-loop reporter” value (input ligand: none) stood at 116 nM; the “apparent KD of K4 kissing-loop reporter” value under setting [1] amounted to 161 nM; the “apparent KD of K4 kissing-loop reporter” value under setting [2] stood at 402 nM.

With “CUUAGGAGUGGUGUUGAUUAGGGAGCGGAAGGAGCGCCAAUGAUGGCAGGUAGGUCGCCGGAAUGUAGUGAUGUUGCAUAGAGGG [ExArgA.S]”, the “apparent KD of K4 kissing-loop reporter” value (input ligand: FMN 200 uM) came out at 476 nM; the “apparent KD of K4 kissing-loop reporter” value (input ligand: arginine 13.2 mM) turned out to be 225 nM; the “apparent KD of K4 kissing-loop reporter” value (input ligand: none) worked out at 415 nM; the “apparent KD of K4 kissing-loop reporter” value under setting [1] is 236 nM; the “apparent KD of K4 kissing-loop reporter” value under setting [2] is 267 nM.

The values above are taken from the supplement of paper PMC9170038.
